# Measured values published in paper PMC4894940, “The function of the two-pore channel TPC1 depends on dimerization of its carboxy-terminal helix” (Cellular and Molecular Life Sciences: CMLS, 2016).
# Legend:
# Format in all cases: cell-based, Arabidopsis thaliana
# tonoplast = test: Confocal localization of GFP-fusions in tpc1-2 mesophyll protoplasts; settings: GFP-fusion in tpc1-2 mesophyll protoplasts
# Experimental: (§1) Expression of GFP-fusion proteins for electrophysiological measurements or confocal microscopy was performed in A. thaliana tpc1-2 mesophyll protoplasts as described. Briefly, leaves were enzymatically digested to release mesophyll protoplasts, which were then transformed by the polyethylene glycol method. Protoplasts were used for electrophysiological measurements and subcellular localization of GFP fluorescence 2–4 days after transformation.
# Fluorescence signals were detected and documented with a TCS SP2 confocal laser scanning microscope and the Leica Confocal Software (Leica Microsystems). A 488 nm Argon laser was used for excitation of GFP and of the auto-fluorescence of chlorophyll. GFP-signals were detected from 500 to 556 nm and chlorophyll signals from 675 to 767 nm. Venus was excited with a […] and detected in the range from 520 to 556 nm, the corresponding chlorophyll signals were detected from 637 to 736 nm. Images were processed with Photoshop (Adobe Systems).
# [1] = test system: slow vacuolar (SV) currents in tpc1-2 vacuoles; test: Whole-vacuolar patch-clamp of TPC1 variants (SV currents); settings: for whole-vacuolar SV currents: GFP-fusion in tpc1-2 vacuoles, 1 mM CaCl2 bath, pH 7.5; for reduction of whole-vacuolar current amplitude: relative to TPC1 wild type
# Experimental: as §1
# (§2) Patch-clamp experiments were performed on transformed vacuoles harboring two-pore channels as identified by GFP fluorescence. The pipette (luminal) solution consisted of 100 mM K-gluconate, 2 mM MgCl2, 10 mM EGTA, 10 mM MES, pH 5.5/Tris. The bath (cytosolic) solution contained 50 mM K-gluconate, 1 mM CaCl2, 1 mM MgCl2, 2 mM DTT, 10 mM HEPES, pH 7.5/Tris. Solutions were adjusted to 430 mosmol/kg by adding D-sorbitol. For analysis of the TPC1-S706 mutants two further calcium concentrations of the bath solution were used in which 1 mM CaCl2 was substituted by 0.2 mM or 0.05 mM CaCl2, respectively. Competition assays using the CTH peptide were performed on endogenous TPC1 channels in vacuoles isolated from Col-0 plants. Peptides were dissolved at 10 mM in bath solution supplemented with 1 % DMSO and 0.1 % pluronic, and diluted >600-fold for application in patch-clamp recordings. Currents were recorded either in the whole-vacuolar or cytosolic side-out configuration of the patch-clamp technique, using an EPC10 amplifier and the program PULSE (HEKA electronics, Lambrecht, Germany). Recordings and data analysis were performed as described earlier. Relative open probabilities (P o) were determined from tail currents at −53 mV, following pulses to the different test voltages. Tail currents were normalized to the maximum values at 1 mM Ca^2+, plotted as a function of the applied test voltage, and fitted according to the Boltzmann equation: PO=A/1+exp^zF/RT·(Vo-V) where V o and z are parameters for the voltage at half-maximum open probability and the apparent number of gating charges, respectively, and A describes the maximum conductance that is reached under the experimental conditions.
# [2] = test system: excised cytosolic side-out vacuolar membrane patches of tpc1-2 cells; test: Excised cytosolic side-out patch recordings of TPC1 variants; settings: for current remaining following reduction of Ca2+ from 1 mM to 200 µM: at 107 mV, Ca2+ reduced from 1 mM to 200 µM (n = 3–7)
# Experimental: as §1, §2
Molecule,subcellular localization of GFP-fusion (tonoplast),whole-vacuolar SV currents [1],"single-channel conductance ([2]; excised cytosolic side-out patch, tpc1-2 cell, linear fit) [pS]","macroscopic currents in excised patches ([2]; excised patches, tpc1-2 cells)",current remaining following reduction of Ca2+ from 1 mM to 200 µM [2] [%],reduction of whole-vacuolar current amplitude [1] [%]
"TPC1ΔC8: truncated TPC1 containing residues 1–725 (protein, UniProt Q94KI8 1-725, looked up, fragment, GFP fusion) MEDPLIGRDSLGGGGTDRVRRSEAITHGTPFQKAAALVDLAEDGIGLPVEILDQSSFGESARYYFIFTRLDLIWSLNYFALLFLNFFEQPLWCEKNPKPSCKDRDYYYLGELPYLTNAESIIYEVITLAILLVHTFFPISYEGSRIFWTSRLNLVKVACVVILFVDVLVDFLYLSPLAFDFLPFRIAPYVRVIIFILSIRELRDTLVLLSGMLGTYLNILALWMLFLLFASWIAFVMFEDTQQGLTVFTSYGATLYQMFILFTTSNNPDVWIPAYKSSRWSSVFFVLYVLIGVYFVTNLILAVVYDSFKEQLAKQVSGMDQMKRRMLEKAFGLIDSDKNGEIDKNQCIKLFEQLTNYRTLPKISKEEFGLIFDELDDTRDFKINKDEFADLCQAIALRFQKEEVPSLFEHFPQIYHSALSQQLRAFVRSPNFGYAISFILIINFIAVVVETTLDIEESSAQKPWQVAEFVFGWIYVLEMALKIYTYGFENYWREGANRFDFLVTWVIVIGETATFITPDENTFFSNGEWIRYLLLARMLRLIRLLMNVQRYRAFIATFITLIPSLMPYLGTIFCVLCIYCSIGVQVFGGLVNAGNKKLFETELAEDDYLLFNFNDYPNGMVTLFNLLVMGNWQVWMESYKDLTGTWWSITYFVSFYVITILLLLNLVVAFVLEAFFTELDLEEEEKCQGQDSQEKRNRRRSAGSKSRSQRVDTLLHHMLGDELSK",localized in the tonoplast,wild type like,–,–,–,–
"TPC1-3LA: leucines L714, 715, 719 of TPC1 replaced by alanine (protein, UniProt Q94KI8 1-733, looked up, variant L714A L715A L719A, C-terminal GFP, leucines L714, 715, 719 of TPC1 replaced by alanine) Two pore calcium channel …: MEDPLIGRDSLGGGGTDRVRRSEAITHGTPFQKAAALVDLAEDGIGLPVEILDQSSFGESARYYFIFTRLDLIWSLNYFALLFLNFFEQPLWCEKNPKPSCKDRDYYYLGELPYLTNAESIIYEVITLAILLVHTFFPISYEGSRIFWTSRLNLVKVACVVILFVDVLVDFLYLSPLAFDFLPFRIAPYVRVIIFILSIRELRDTLVLLSGMLGTYLNILALWMLFLLFASWIAFVMFEDTQQGLTVFTSYGATLYQMFILFTTSNNPDVWIPAYKSSRWSSVFFVLYVLIGVYFVTNLILAVVYDSFKEQLAKQVSGMDQMKRRMLEKAFGLIDSDKNGEIDKNQCIKLFEQLTNYRTLPKISKEEFGLIFDELDDTRDFKINKDEFADLCQAIALRFQKEEVPSLFEHFPQIYHSALSQQLRAFVRSPNFGYAISFILIINFIAVVVETTLDIEESSAQKPWQVAEFVFGWIYVLEMALKIYTYGFENYWREGANRFDFLVTWVIVIGETATFITPDENTFFSNGEWIRYLLLARMLRLIRLLMNVQRYRAFIATFITLIPSLMPYLGTIFCVLCIYCSIGVQVFGGLVNAGNKKLFETELAEDDYLLFNFNDYPNGMVTLFNLLVMGNWQVWMESYKDLTGTWWSITYFVSFYVITILLLLNLVVAFVLEAFFTELDLEEEEKCQGQDSQEKRNRRRSAGSKSRSQRVDTAAHHMAGDELSKPECSTSDT",–,loss of SV currents to a similar extent as TPC1-3LP,58,no macroscopic currents were resolved,–,–
"TPC1-S706A (protein, UniProt Q94KI8 1-733, looked up, variant S706A) Two pore calcium channel …: MEDPLIGRDSLGGGGTDRVRRSEAITHGTPFQKAAALVDLAEDGIGLPVEILDQSSFGESARYYFIFTRLDLIWSLNYFALLFLNFFEQPLWCEKNPKPSCKDRDYYYLGELPYLTNAESIIYEVITLAILLVHTFFPISYEGSRIFWTSRLNLVKVACVVILFVDVLVDFLYLSPLAFDFLPFRIAPYVRVIIFILSIRELRDTLVLLSGMLGTYLNILALWMLFLLFASWIAFVMFEDTQQGLTVFTSYGATLYQMFILFTTSNNPDVWIPAYKSSRWSSVFFVLYVLIGVYFVTNLILAVVYDSFKEQLAKQVSGMDQMKRRMLEKAFGLIDSDKNGEIDKNQCIKLFEQLTNYRTLPKISKEEFGLIFDELDDTRDFKINKDEFADLCQAIALRFQKEEVPSLFEHFPQIYHSALSQQLRAFVRSPNFGYAISFILIINFIAVVVETTLDIEESSAQKPWQVAEFVFGWIYVLEMALKIYTYGFENYWREGANRFDFLVTWVIVIGETATFITPDENTFFSNGEWIRYLLLARMLRLIRLLMNVQRYRAFIATFITLIPSLMPYLGTIFCVLCIYCSIGVQVFGGLVNAGNKKLFETELAEDDYLLFNFNDYPNGMVTLFNLLVMGNWQVWMESYKDLTGTWWSITYFVSFYVITILLLLNLVVAFVLEAFFTELDLEEEEKCQGQDSQEKRNRRRSAGSKARSQRVDTLLHHMLGDELSKPECSTSDT",–,–,–,–,28 ± 3,53
"TPC1-S706D (protein, UniProt Q94KI8 1-733, looked up, variant S706D) Two pore calcium channel …: MEDPLIGRDSLGGGGTDRVRRSEAITHGTPFQKAAALVDLAEDGIGLPVEILDQSSFGESARYYFIFTRLDLIWSLNYFALLFLNFFEQPLWCEKNPKPSCKDRDYYYLGELPYLTNAESIIYEVITLAILLVHTFFPISYEGSRIFWTSRLNLVKVACVVILFVDVLVDFLYLSPLAFDFLPFRIAPYVRVIIFILSIRELRDTLVLLSGMLGTYLNILALWMLFLLFASWIAFVMFEDTQQGLTVFTSYGATLYQMFILFTTSNNPDVWIPAYKSSRWSSVFFVLYVLIGVYFVTNLILAVVYDSFKEQLAKQVSGMDQMKRRMLEKAFGLIDSDKNGEIDKNQCIKLFEQLTNYRTLPKISKEEFGLIFDELDDTRDFKINKDEFADLCQAIALRFQKEEVPSLFEHFPQIYHSALSQQLRAFVRSPNFGYAISFILIINFIAVVVETTLDIEESSAQKPWQVAEFVFGWIYVLEMALKIYTYGFENYWREGANRFDFLVTWVIVIGETATFITPDENTFFSNGEWIRYLLLARMLRLIRLLMNVQRYRAFIATFITLIPSLMPYLGTIFCVLCIYCSIGVQVFGGLVNAGNKKLFETELAEDDYLLFNFNDYPNGMVTLFNLLVMGNWQVWMESYKDLTGTWWSITYFVSFYVITILLLLNLVVAFVLEAFFTELDLEEEEKCQGQDSQEKRNRRRSAGSKDRSQRVDTLLHHMLGDELSKPECSTSDT",–,–,–,–,24 ± 4,58
"TPC1ΔC29: truncated TPC1 containing residues 1–704 (protein, UniProt Q94KI8 1-704, looked up, fragment, C-terminal GFP) MEDPLIGRDSLGGGGTDRVRRSEAITHGTPFQKAAALVDLAEDGIGLPVEILDQSSFGESARYYFIFTRLDLIWSLNYFALLFLNFFEQPLWCEKNPKPSCKDRDYYYLGELPYLTNAESIIYEVITLAILLVHTFFPISYEGSRIFWTSRLNLVKVACVVILFVDVLVDFLYLSPLAFDFLPFRIAPYVRVIIFILSIRELRDTLVLLSGMLGTYLNILALWMLFLLFASWIAFVMFEDTQQGLTVFTSYGATLYQMFILFTTSNNPDVWIPAYKSSRWSSVFFVLYVLIGVYFVTNLILAVVYDSFKEQLAKQVSGMDQMKRRMLEKAFGLIDSDKNGEIDKNQCIKLFEQLTNYRTLPKISKEEFGLIFDELDDTRDFKINKDEFADLCQAIALRFQKEEVPSLFEHFPQIYHSALSQQLRAFVRSPNFGYAISFILIINFIAVVVETTLDIEESSAQKPWQVAEFVFGWIYVLEMALKIYTYGFENYWREGANRFDFLVTWVIVIGETATFITPDENTFFSNGEWIRYLLLARMLRLIRLLMNVQRYRAFIATFITLIPSLMPYLGTIFCVLCIYCSIGVQVFGGLVNAGNKKLFETELAEDDYLLFNFNDYPNGMVTLFNLLVMGNWQVWMESYKDLTGTWWSITYFVSFYVITILLLLNLVVAFVLEAFFTELDLEEEEKCQGQDSQEKRNRRRSAGS",localized in the tonoplast,stayed silent,–,–,–,–
